The results in this text go back to the nanobody polyreactivity screen of Harvey et al. (2022).

The nature of this data set: yeast display, Sf9 membrane polyspecificity reagent, FACS + sequencing; frameworks hold sequencing errors. The gist of the method: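 Nanobodies came from a synthetic yeast display library in Saccharomyces cerevisiae BJ5465, induced with galactose for 36–48 hours and stained for 1 hour at 4 °C with 10% biotinylated, detergent-solubilized Sf9 membrane reagent. Cells were enriched on streptavidin microbeads and then FACS-sorted, with low and high (top ~1%) gates set on anti-HA fluorescence for expression and streptavidin fluorescence for reagent binding. Each polyreactivity label reflects the gate a clone came from. Genes were amplified by colony PCR, sequenced by MiSeq 2 × 250 and filtered by CDR length.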
In the case of “QLQLVESGGGLVQAGGSLRLSCAASGFTFRWNAMGWYRQAPGKERELLAAITNDDSTYYADSVKGRFTISRDNAKNSVYLQLNSLKPEDTAVYYCNARYGRYLDLDTGVALAGRGYWGQGTQVTVSS”, the “polyreactivity (PSR sort gate)” value was “low polyreactivity”.
Take “QVQLVDTGGGLVQAGGSLRLSCSASGSNFEYNDMVWYRHAHGKERELVAAISSGGDTNYADSVKGRFTISRDNAKNTVYLQKNSLKAEDTAVYYCNAEGLILYDYWGQGTQVTVSS”: the “polyreactivity (PSR sort gate)” value is recorded as “low polyreactivity”.
For “QVQLVESGGGLVQAGGSLRLSCAASGSIFTYYAMGWYRQAPGKERELVAAITSTGGSTYYADSVKGRFTISRDNAKNTVYLQMNSLKPEDTAVYYCATDYGYYDYWGQGTQVTVSS”, the “polyreactivity (PSR sort gate)” value is reported as “low polyreactivity”.
Turning to “QVQLEESGGGLVQAGGSLRLSCAASGGTFYYSPMGWDREPPGKERELVAAIRWRGGNTYYADSVKGRFTISLDNAKNTVYLQMNSVKPEDTAVYYCAAQTHDYNRYVGTTAYDYWGQGTQVTVSS”, the “polyreactivity (PSR sort gate)” value is “low polyreactivity”.
For the sequence “QVQLVESGGGLVQAGGSLRLSCAASGRTFSHYAMGSYRQAPGKEREFVADITRSGGSTYYADSVKGRFTISRDNAKNTVYLQMNSLKPEDTAVYYCNAESYFEIYDYWGQGTQVTVSS”, the “polyreactivity (PSR sort gate)” value is “high polyreactivity”.
Regarding “QVQLVESGGGLVQAGGSLRLSCAASGSTFYRYAMGWYRQAPGKERELVAAITRTGGSTYADSVKGRFTISRDNAKNTVYLQMNSLKPEDTAVYYCAVQRYYVSSISPFYYWGQGTQVTVSS”, the “polyreactivity (PSR sort gate)” value is given as “low polyreactivity”.
The result for “QVQLVESGGGLVQAGGSLRLSCAASGITIVRYAMGWSRQAPGKERELVAAINRSGGSTYYADSVKGRFTISRDNAKNTVYLQMNSLKPEDTAVYYCAARLYGKYDPPGYYYWGQGTQVTVSS” reads “high polyreactivity”.
The result for “QVQLVESGGGLVQAGGSLRLSCAASGIIFQYNAMGWYRQAPGKEREFVAAISYGGTSTYYADSVKGRFTISRDNAKNTVYLQMNSLKPEDTAVYYCAADYQGYTPSDGRYYWGQGTQVTVSS” reads “low polyreactivity”; that for “QVQLVESGGGLVQAGGSLRLSCAASGFIFQRYAMGWYRQAPGKERELVAAITRTGGRTYYADSVKGRFTISRDNAKNTVYLQMNSLKPEDTAVYYCAADRTLSYEYWGQGTQVTVSS”, “high polyreactivity”.
Consider “QVHLVESGGGLVQAGGSLRLSCAASGFIFSWYDMGWYRQAPGKERELVAAINWSGGSTYYADSVKGRFTISRDNAKNTVYLQIISLKPEDTAVYYCAAVRQSQFEYWGQGTQVTVSS”, for which the “polyreactivity (PSR sort gate)” value was “high polyreactivity”.
With “QVQLVETGGVLVQAGGSLRLSCAASGSIFQQNAMGGYRQAPGKERELVASISSGGRTNYADSVKGRCTISRDNAKNTVYLQMNSLKPEDTAVYYCAKTRIRYKPLHFYYWGQGTQVTVSS”, the “polyreactivity (PSR sort gate)” value is given as “low polyreactivity”.
In the case of “QVQLVESGGGLVQAGGSLRLSCAASGFTSSNNAMGWYRQAPGKERELFAAISSSGGRTYYADSVKGRFTISRDNAKNTVYLQMNSLQPEDTAVYFCAATGYVGGIYGHYPRGYWGQGTQVTVSS” it was “high polyreactivity”; in that of “QVQLVESGGGLVQAGGSLRLSCAASGIIIDSNAMGWYRQAPGKERELVAAITSGGSTKYADSVKGRFTISRDNAKNTVYLQMNSLKPEDTAVYYCNADFRPADQWSYFYEMDSWGQGTQVTVSS”, “low polyreactivity”; in that of “QVQLVESGGGLVQAGGRLRLSCAASGRTFYSNAMGWYSQAPGKERELVAAITFGGGSTYYADSVKGRFTISRDNAKNTVYLQMNSLKPEDTAVYYCAAEGYKYRFYYWGQGTQVTVSS”, “low polyreactivity”.
In the case of “QVQLVESGGGLVQAGGSLRLSCAASGSTINFYAMGWYRQAPGKERELVAAIRVSSGSTYYADSVKGRFTISRDNAKNTVYLQMDSLKPEDTAVYYCAAYLKVRSPRDGYDYWGQGTQVTVSS” it was “high polyreactivity”; in that of “QVQLVESGGGLVQAGGSLRFSCAASGRIFGTYAMGWYRQAPGKERELVAAITQSGGRTYYADSVKGRFTISRDNAKNTVYLQMNSLKPEDTAVYDCNKVTYRGIGLGYDYWGQGTQVTVSS”, “high polyreactivity”.
Turning to “QVQLVESGGGLVQAGGSLRLSCAASGSIFAPYAMGWYRQAPGKERELVATISSIGTSTYYADSVKGRFTISRDNAKNTVYLQMNSLKPEDTAVYYCAADQSGGYPDNYWGQGTQVTVSS”, the “polyreactivity (PSR sort gate)” value is “low polyreactivity”.
In the case of “QVQLEESGGGLVQAGGSLRLSCAAYGGIFGYYPMGWYRQATGKERELVAAINYSGGSTYYADSVKGRFTISRDNSKNTVYLQMNSLKPEVTAVYYCAKRSYGGTLHYAFDSWGQGTQVTVSS” it was “low polyreactivity”; in that of “QVQLVESGGGLVQAGGSLRLSCAASGSTFRFYAMGWYRQAPGKERELVAVIRSTGSTYYADSVKGRFTISRDNAKNTVYLQMNSLKPEDTAVYYCAAQNAWWSNGRSYDYWGQGTQVTVSS”, “low polyreactivity”; in that of “QVQLVESGGGLVQAGGSLRLSCAASGRIFKNNAMGWYRQAPGKERELVAGISRSGGRTYYADSVKGRFTISRDNAKNTVYLQMNSLKPEDTAVYYCNAYAYYSHGVTTTYDYWGQGTQVTVSS”, “high polyreactivity”.
In the case of “QVQLVESGGGLVQAGGSLRLSCAASGFTFAYYVMGWYIQAPGKETELVAAISISGARTYYAESVKGRFTISRDNSKNTVYLQMNRLKPEDTAVYYCAADRRTDGHDYWGLGTQVTVSS” it was “high polyreactivity”; in that of “QVQLVESGGGIVQAGGSLRLSCAASGFIFKRYAMGWYRQAPGKERELVAAITTSGGRTYYADSVKGRFTISRDNAKNTVYLLMNSLKPEDTAVYYCNADYGTYWWPYYYWGQGTQVTVSS”, “high polyreactivity”.
Turning to “QVQLEESGGGLVQAGGSLRLSCAASGSTFFIYAMGWYRQAPGKERELVAVIRNIDVRTYYADSVKGRFTISRDNAKNTVYLQMNSLKPEDTAVYYCAADELLDESVDMYYWGQGTQVTVSS”, the “polyreactivity (PSR sort gate)” value is listed as “low polyreactivity”.
The result for “QVQLVESGGGLVQAGGSLRLSCAASGSISGLNAMGWYRQAPGKERELVAAISRSGGRTYYADSVKGRFTISRDNAKNTVYLQMNSLKPEDTAVYYCAAVTTWRMDYWGQGTQVTVSS” reads “high polyreactivity”.
In the case of “QVQLVESGGGLVQAGGSLRLSCAASGSTFVCYGMGWYRQAPGKEREFVAAISTSGGRTYYADSVKGRFSISRDNAKNTVYLQMNSLKQEDTAVYYCATRPYFTYRWYDYWGQGTKVTVSS” it was “high polyreactivity”; in that of “QVQLVESGGGLVQAGGSLRLSCAASGRTFRLYAMGWYRQAPGKERELVAAISGSGGSTYYADSVKGRFTISRDNAKNTVYLQMNSLKPEDTAVYYCATAVHTAILNYWGQGTQVTVSS”, “low polyreactivity”.
In the case of “QVQLEESGGGLVQAGGSLRLSCAASGRISGFNAMGWYRKAPGKEREFVAAISYRGGYTYADSVKGRFTISRDNAKNTVYLQMNSLKPEDTAVYYCNALWRGHGRYNYWGQGTQVNVSS” it was “low polyreactivity”; in that of “QVQLVESGGGLVQAGGSLRLSFAASGSNFYIYAMGWYRQAPGKERELVAAITSGGNTYYVDSVKGRFTISRDNAKNTVYFQMNSLKPEDTAVYYCAAELYDRWSRMDYWGQGTQVTVSS”, “low polyreactivity”.
For the sequence “QVQLVESGGGLVQAGGSLRLSCAASGFTFQYYAMGWYRQAPGKERELVAAISWSGDSTYYADSVKGRITISRENAKNSVYLQMNSLKPEDTAVYYCAVYYTRGYDYWGQGTQVTVSS”, the “polyreactivity (PSR sort gate)” value is recorded as “high polyreactivity”.
As to “QVQLVESGGGLVKAGGSLLLSCAASGSTFRVNFMGWYRKSPGKERELVAAITTSGGSKYYADSVKGRFTITRDNAKNSVFLQMNSEKLDDTAVYFCNTTYPSGWGPETDYWGQGIQVTVSS”, the “polyreactivity (PSR sort gate)” value is reported as “low polyreactivity”.
Take “QVQLVESGGGLVPAGGSLRLSCAASGFTFNSNAMGWYRQAPGKERELVAAISGSGGRTYYADSVKGRFTISRDNAKNTVYLQRNSLKPEDTAVYYCAADYPVRSYDYWGQGTQVTVSS”: the “polyreactivity (PSR sort gate)” value was “low polyreactivity”.
Take “QVQLVESGGGLVQAGGSLRLSCAASGIIFYYNAMGWYRQAPGKERELVAAINDSGNTYYADSVKGRFTISRDNAKNTVYFQMNSLKPEDTAVYYCAADVWKYWGYDYWGQGTQVTVSS”: the “polyreactivity (PSR sort gate)” value is on record as “low polyreactivity”.
In the case of “QVQLVESGGGLVQAGGSLRLSCAASGYTFRVYTMGWYRQAPGKERELVAAISRRGSRTYYADSVKGRFTISRDNAKNTVYLQMNSLKPEDTAVYYCAAGIPYPDDYWGQGTQVTVSS”, the “polyreactivity (PSR sort gate)” value was “high polyreactivity”.
In the case of “QFQLVESGGGLVQAGGSLRLSCAASGYTFGNYAMGWYRPAPGNVRVLVAGISWSGGSTYYADSVKGRFTISRDNAKNTVYLQMNSLKPEDTAVYYCATRVQGYHNGWYAYLGQGTQVTVSS” it was “high polyreactivity”; in that of “QVQLVESGGGLVQAGGSLRLSCAASGSIFGYNAMGWYRQAPGKESELVAAISSSGGRTYYADSVKGRFTNSRDNAKNTVYLQMNSLKPEDTAVYYCAALGLYGDYLWYDYWGQGTQVTVSS”, “high polyreactivity”; in that of “QVQLVESGGGLVQAGGSLRLSCAASGSTFTWYAMGWYRQAPGKERELVAAIRWSGGNTYYADSVKGRFTISRDTAKNTVYLHMNSLKPEDTGVYYCAAVSRTYSLQMYYWGQGTQVTVSS”, “high polyreactivity”.
In the case of “QVQLVESGGGLVQAGGSLRLSCAASGRTLDYNAMGLYRQAPGKERELVAAISWTGDSTYYADSVKGRFTISRDNAKNTVNLQMNSLKPEDTAVYYCAASYSRFVDWIGDPGYDYWGQGTQVTVSS” it was “low polyreactivity”; in that of “QVQLVESGGGLVQAGGSLRLSCAASGSIFRYYAMGWYRQAPGKERELVASITRRGGSTYYADSVKGRFTISRDNAKNTVYLQMTSLKPEDTAVYYCAAHKTYVRDYYWGQGTQVTVSS”, “high polyreactivity”.
Take “QVQLVESGGGLVQAGGSLRLSCAASGRIFDDNAMGWYRQAPGKETELVAAISSSGGSTYYADSVKGRFTISRDNAKNSVYLQMNSLKPEDTAVYYCAKAPGQDTPYPYGYWGQGTQVTVSS”: the “polyreactivity (PSR sort gate)” value is given as “high polyreactivity”.
The result for “QVQLQESGGGLVQAGGILRLSCAASGTISDRAGMGWYREAPAKNAIGATIDRGTNTNYADSVKGRFTISRDNAKNTVYLQMNSLKREDTAVYNCAADGRYYIYLDYWGQGTQVTVSS” reads “low polyreactivity”; that for “QVQLVESGGGLVQAGGSLRVSCAASGSIFCPYTMGWNRQAPGKERELVAAITRSGGSTYYADSVKGRFTISRDNGKNTVYLQMNSLKPEDTAVFYCAARGQAYSGDRMYYWGQGTQVTVSS”, “high polyreactivity”.
